# Assay results as given in patent US9951123B2, “Anti-LPS O11 antibody” (priority 2013, dated 2018).
# B1: No.76: mouse monoclonal anti-LPS O11 antibody prepared using pJON mIgG2a and pJON mIgκ; variable regions SEQ ID NO: 8 and 4 (antibody, V domains shown)
# VH: MGWSCIILFLVAAATGVHSQVQLQQPGAELVKPGASVNLSCKSSGYTFTNYWINWVKQRPGQGLEWIGDIYPGTSTTNYNEKFKNKATLTVDTSSSTAYMQLSSLTSDDSAVYYCTRIYYDYDGYYFDYWGQGTTLTVSS
# VL: MESQTLVFISILLWLYGADGNIVMTQSPKSMSMSVGERVTLSCKASENVGTSVSWYQEKPEQSPKLLIFGASNRYTGVPDRFTGSGSATDFTLTISSVQAEDLADYHCGQSYSYPYTFGGRTKLEIKRA
# modifications: Heavy chain variable of No.76; Light chain variable of No.76
# B2: #1G5: anti-LPS O11 monoclonal antibody prepared using pJON mIgG2a-hIgG1 and pJON mIgκ; variable regions SEQ ID NO: 16 and 12 (antibody, V domains shown)
# VH: MGWSCIILFLVAAATGVHSQVQLQQPGAELVKPGASVKLSCKASGYTFTSYWINWVKQRPGQGLEWIGNIYPGSSSINYNEKFKSKATLTVDTSSSTAYMQLSSLTSDDSAVYYCSRTIYNYGSSGYNYAMDYWGQGTSVIVSS
# VL: MESQTLVFISILLWLYGSDGNIVMTQSPKSMSMSVGERVTLSCKASENVGNSVSWYQQKAEQSPKPLIYGASNRYTGVPDRFTGSGSATDFTLTISSVQAEDLADYHCGQSYSYPYTFGGGTKLEIKRA
# modifications: Heavy chain variable of #1G5; Light chain variable of #1G5
# B3: #4C12: anti-LPS O11 monoclonal antibody prepared using pJON mIgG2a-hIgG1 and pJON mIgκ; variable regions SEQ ID NO: 24 and 20 (antibody, V domains shown)
# VH: MGWSCIILFLVAAATGVQSQVQLQQPGAELVKPGASVKLSCKASGYTFTTYWINWMQQRPGQGLEWIGNIYPGTRSSNYNEKFKNKATLTVDTSSSTAYMQLNSLTSDDSAVYYCTRVYYDHVGYYFDYWGQGTTLTVSS
# VL: MESQTLVFISILLWLYGADGNIVMTQSPKSMSMSVGERVTLSCKASENVGVSVSWYQQKPEQSPKLLIYGASNRCTGVPDRFTGSRSATDFTLTVSNVQAEDLADYHCGQSYSYPYTFGGGTRLEIKRA
# modifications: Heavy chain variable of #4C12; Light chain variable of #4C12
# How the values were obtained:
# [1] = tested on: Pseudomonas aeruginosa clinical isolates No. 12 and No. 31; test: Minimum inhibitory concentration of LVFX against clinical isolates; type: cell-based
# [2] = tested on: Pseudomonas aeruginosa ATCC 29260; test: Opsonophagocytic killing activity against Pseudomonas aeruginosa ATCC 29260; type: cell-based; conditions: antibody culture supernatant samples
# Method: As a buffer for measurement, 0.1% gelatin/1% FBS/Hank's balanced salt solution (opsonization buffer) was prepared. HL60 as effector cells were cultured in 10% FBS-containing RPMI 1640 (Invitrogen) supplemented with 0.8% N,N-dimethylformamide for 5 or 6 days to prepare neutrophil-like, differentiated HL60 in an opsonization buffer. As the target bacteria, Pseudomonas aeruginosa ATCC 29260 cultured on MHA was prepared by suspending it in the opsonization buffer. As a complement, Baby Rabbit Serum (Cederlane) was prepared by dissolving it with ice-cold distilled water. Bacterial suspension (final concentration of 2×10^4 cells/ml) was mixed with antibody culture supernatant or purified antibody, allowed to stand at 4° C. for 30 minutes, and the prepared neutrophil-like, differentiated HL60 cells (final concentration of 4×10^6 cells/ml) and a complement (final concentration 10%) were added thereto, followed by incubation with gentle agitation at 37° C. for 1 hour under 5% CO2. After the incubation, each sample was spread on MHA, and colonies were counted on the next day.
# Opsonophagocytic killing activity of each of cNo.76, c#1G5M, c#1G5, c#4C13KM, c#4C13, Meiji 1640, Meiji 1656, and 1BO11 hIgG1 against Pseudomonas aeruginosa ATCC 29260 was measured in accordance with the method of 1)-3-2. The opsonophagocytic killing activity was expressed in terms of 50% minimum growth inhibitory concentration.
# In accordance with the method of 1)-3-2, the opsonophagocytic killing activities of h#1G5-H2/L2, h#1G5-H3/L3, h#4C13K-H2/L2, and h#4C13k-H3/L3 against ATCC 29260 were measured, and then compared to those of c#1G5 and c#4C13. The opsonophagocytic killing activity was expressed in terms of 50% minimum growth inhibitory concentration.
Molecule,MIC ([1]; No. 12 strain),MIC ([1]; strain No. 31),opsonophagocytic killing activity in screening [2]
"C[C@H]1COc2c(N3CCN(C)CC3)c(F)cc3c(=O)c(C(=O)O)cn1c23 [LVFX, levofloxacin]",> 128 µg/mL,32 µg/mL,–
B1,–,–,strong opsonophagocytic killing activity
B2,–,–,strong opsonophagocytic killing activity
B3,–,–,strong opsonophagocytic killing activity
